Data from the supplement of paper PMC11246515.
± gives the standard deviation of the averaged measurements.

Experiment: total protein half-life in vivo (active degradation + dilution); higher = more stable protein
[1] = E. coli NCM3722 delta-clpP delta-lon delta-hslV, growth: N-lim chemostat, doubling time 6 h
[2] = wild type E. coli NCM3722, growth: C-lim chemostat, doubling time 3 h
[3] = E. coli NCM3722 delta-clpP, growth: N-lim chemostat, doubling time 6 h
[4] = E. coli NCM3722 delta-hslV, growth: N-lim chemostat, doubling time 6 h
[5] = wild type E. coli NCM3722, growth: C-lim chemostat, doubling time 6 h
[6] = wild type E. coli NCM3722, growth: C-lim chemostat, doubling time 12 h
[7] = wild type E. coli NCM3722, growth: N-lim chemostat, doubling time 6 h
[8] = wild type E. coli NCM3722, growth: N-lim chemostat, doubling time 12 h
[9] = wild type E. coli NCM3722, growth: P-lim chemostat, doubling time 6 h
[10] = wild type E. coli NCM3722, growth: P-lim chemostat, doubling time 12 h
[11] = E. coli NCM3722 delta-smpB, growth: N-lim chemostat, doubling time 6 h

Sequence	total protein half-life in vivo [1] [h]	total protein half-life in vivo [2] [h]	total protein half-life in vivo [3] [h]	total protein half-life in vivo [4] [h]	total protein half-life in vivo [5] [h]	total protein half-life in vivo [6] [h]	total protein half-life in vivo [7] [h]	total protein half-life in vivo [8] [h]	total protein half-life in vivo [9] [h]	total protein half-life in vivo [10] [h]	total protein half-life in vivo (E. coli NCM3722 delta-lon, growth: N-lim chemostat, doubling time 6 h) [h]	total protein half-life in vivo [11] [h]
MSEYRRYYIKGGTWFFTVNLRNRRSQLLTTQYQMLRHAIIKVKRDRPFEINAWVVLPEHMHCIWTLPEGDDDFSSRWREIKKQFTHACGLKNIWQPRFWEHAIRNTKDYRHHVDYIYINPVKHGWVKQVSDWPFSTFHRDVARGLYPIDWAGDVTDFSAGERIIS	5.68	1.93										
MKKIAITCALLSSLVASSVWADAASDLKSRLDKVSSFHASFTQKVTDGSGAAVQEGQGDLWVKRPNLFNWHMTQPDESILVSDGKTLWFYNPFVEQATATWLKDATGNTPFMLIARNQSSDWQQYNIKQNGDDFVLTPKASNGNLKQFTINVGRDGTIHQFSAVEQDDQRSSYQLKSQQNGAVDAAKFTFTPPQGVTVDDQRK	4.62 ± 0.5	3.364 ± 0.025	5.76 ± 1	7.06 ± 1.3	5.679 ± 0.056	9.08 ± 0.39	6.25 ± 0.41	12.5 ± 0.7	5.978 ± 0.007	12.124 ± 0.011		
MLVWLAEHLVKYYSGFNVFSYLTFRAIVSLLTALFISLWMGPRMIAHLQKLSFGQVVRNDGPESHFSKRGTPTMGGIMILTAIVISVLLWAYPSNPYVWCVLVVLVGYGVIGFVDDYRKVVRKDTKGLIARWKYFWMSVIALGVAFALYLAGKDTPATQLVVPFFKDVMPQLGLFYILLAYFVIVGTGNAVNLTDGLDGLAIMPTVFVAGGFALVAWATGNMNFASYLHIPYLRHAGELVIVCTAIVGAGLGFLWFNTYPAQVFMGDVGSLALGGALGIIAVLLRQEFLLVIMGGVFVVETLSVILQVGSFKLRGQRIFRMAPIHHHYELKGWPEPRVIVRFWIISLMLVLIGLATLKVR [P0A6W3]	6.14		5.83	5.23		12.3 ± 0.13	6.35 ± 0.4	13.1	6.06	11.1 ± 0.92	5.13 ± 0.073	7.03
MIKPTFLRRVAIAALLSGSCFSAAAAPPAPPVSYGVEEDVFHPVRAKQGMVASVDATATQVGVDILKEGGNAVDAAVAVGYALAVTHPQAGNLGGGGFMLIRSKNGNTTAIDFREMAPAKATRDMFLDDQGNPDSKKSLTSHLASGTPGTVAGFSLALDKYGTMPLNKVVQPAFKLARDGFIVNDALADDLKTYGSEVLPNHENSKAIFWKEGEPLKKGDTLVQANLAKSLEMIAENGPDEFYKGTIAEQIAQEMQKNGGLITKEDLAAYKAVERTPISGDYRGYQVYSMPPPSSGGIHIVQILNILENFDMKKYGFGSADAMQIMAEAEKYAYADRSEYLGDPDFVKVPWQALTNKAYAKSIADQIDINKAKPSSEIRPGKLAPYESNQTTHYSVVDKDGNAVAVTYTLNTTFGTGIVAGESGILLNNQMDDFSAKPGVPNVYGLVGGDANAVGPNKRPLSSMSPTIVVKDGKTWLVTGSPGGSRIITTVLQMVVNSIDYGLNVAEATNAPRFHHQWLPDELRVEKGFSPDTLKLLEAKGQKVALKEAMGSTQSIMVGPDGELYGASDPRSVDDLTAGY	6.01 ± 0.77	3.1 ± 0.34		5.99 ± 0.16	5.9124 ± 0.0049	12.2 ± 2.3	6.219 ± 0.013	12.42 ± 0.05	5.73 ± 0.52	13.2 ± 1.1		6.24 ± 0.43
